Data on 17 sequences can be found in a protein production outcome set (Wang et al. 2014).
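Note: failed if final PepcDB status was selected cloned or expressed and not failed if soluble or beyond.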

A short description of this data set: label from the status in PepcDB records.
Regarding “MNNTPKLKLGIVAVSRDCFPMELSENRRKAVVDAYNGEIFECLTTVENEKDMRKALKEVKSAGVNALVVYLGNFGPETPETLIAKEFDGPVMFAAAAEERGDNLVNGRGDAYCGMLNASYNLALRNINAYIPEYPVGTASDVANMINEFVPVATALIGLKNLKIISFGPRPQDFLACNAPIKQLYNLGVEIEENSELDLFASFNEHENDSRIPDVVKDMEEELGEGNKMPGILPKLAQYELTLLDWAEEHKGSREYVVFANKCWPAFQTQFGCVPCYVNSRLTARGIPVSCEVDIYGALSEYIGTCVSQDVVTLLDINNTVPKDMYESEIKSKFNYTLKDTFMGFHCGNTAACKLTSGTMKNQMIMARALEPNQEPNITRGTLEGDIVPGEITFFRLQSNADSELTAYVAEGEVLPVKTRSFGSIGVFAIPQMGRFYRHVLIENRFPHHGAVAFGHFGKAIYNLFRYLGVKEVGFNRPKEMLYKTENPFELEHHHHHH”, the protein production result was “not failed”.

“MNNVFGLDIGTRNVVGTVGYQTDDKEFVVTAQYVREHETRAMLDGQIHDIGRVAKTIKEVKDELEKQTGQPLEEVCIAAAGRVLKTVTTHVEYEYAQESVVTGEDVHTLDLLGIEKAQEALKEVNDTSYKFYCVGYSTVKFFLNDEVFISLEGHKANKIGEDIIVTFLPEDVVDGLYAAVGQAGLSVANMTLEPIAAINVAIPENYRMLNIALVDVGAGTSDISITRDGSIIAYGMIPHAGDELTEVIVQHFLVDFNMAESIKLQSTTSDTVTYKDIMSIEHTIPAQDVWDVAAPVVDNIAQEVSAKIRELNGDKTVSACFVVGGGGKIHGFTEKLAEDLDLPEERVALRGEEVLGDVTFEQEDIKKDPLLVTPIGICLNYYDQRNNFIMVRFNGERIKLYDNNRLTIVDAALQAGFPNDELFPKRGTPINFTVNGVARLVRGEAGEGAVVTMNGKPASINTPLEPNSEIIIEPSTAGEAAVYKISQLDEYNHSVITFIINGRRVSCPRFVQVNGELEPEDYSIRENDVIETRNYYTVRQIAQFMDLVIDTDQMIFVNNEEAGLDTLVYENFSVEWKTDEYGVARIDNNTYNDTQESDTDEASVLAEQDANSTESDNTVARTSEQMMNQVLDELHDDFAKEAEASAVPENELPENELPKNDIQEEIHEEDSSKNTVTVIVNGEPVELSGKDTYIFVDIFTHISFDLQAGKGRAIATVINGRDARFSEELHEGDKIELYWKEN”: the protein production result is listed as “failed”.

For “MNPIPADVAAVVLAGGVGRRFGRPKALAMMDGISLVERAVEALSSGPADVYVSVSPALERPVARLVGSRRVIVDLVEQAPCEGPLRAFLTAASTLVSYSNLVFMPVDAPWASWRDLEPIYNASKAIGSGASYFSGEGIVHPLFLAARRKSLLTAAWTACWGRAEKRASAILRSLDPLILLGSSETRSPLALATVNTPQDLWRPSRVPAPAEGYILLEGHSILYKISSTMNSYYSALALEAEYKLYRRLGLLRLASHVLKDAAALNVSTSLIQQESMAGGLGLEHHHHHH”, the protein production entry is listed as “failed”.

For the sequence “MNPLARFLALAGFTVALASCQMFTPPEVQESGFQPSDRPITVDNVGANNKLAELAKAQHPRILATYGGEYSDPKLERMVAKVVGNLTVVSANPTQTYRITILNSPNVNAFALPGGYLYITRGLLALANDSSELAAVIAHEMGHVTANHGLQRQQLEAEEGLATKVVSDVLGDSPTAKAALIRGKLRLAQFSRNQELEADAIGIKSIGEAGYDPYAAGRFLQSMSAYTDFRSISGATDASLDFLATHPNTPQRIDLAQRHARQFGAPGVGTRDRDSFLAGIDGLLYGDTPEEGYVRGETFLHPGLGVSFTVPDGFIIDNSAAAVTATGPGDIAIRFDGVSIDKNRALTDYIRSGWVAGLDDSTVKQETINGNEAATAHAGAEGWQFDIAVIRAGGQVYRLLTAAPSASTSLETVARSVSGSFRVLSAAEKAALKPLHIRVLTVQPGQTMGSLAAQMVGVDRKLDLFRVLNALSPGAAVSAGDKVKIVTDK”, the protein production result is recorded as “failed”.

Consider “MNPSDRKDAVNPFGKLTFLVVDDFENFRLSMRQMLRSCGADKIELVAHATPAIQYCTYNHVDVVLCDYNLGEGKNGQHVLEELRHKKLLKRSSLFLMVTAETSKEMVMGAREYQPDGYLTKPINRAMLEQRLGSLIKQRNALLPITREIDRENYPEAISLCLQTLPKQPRYKTWLMKTLGELYFMVGDLAHAQKVYDDVLNQRELSWARLGRCKVLLANRNFDQAVDGLKALIEKHPDYMEAYDLLAEGLQKQGRSAQAQQVLEKAAEHSPNALLRQKHLAELAGANQDIDTASQAWRQTVSLGTYSIHDNAEHYLSLAQSLSDLSEGDLDEEGAARSSEALSVLTKMEKRFDNDETIGLKSRIVQCRLHAGQGRHREAEKILTAVSSELESLEELPADMGLDFAKTLFRMGREDQAKRILGDLASRFDNDPDTLQKIENLLDEPVGFRQKLEARSMNRDGIKAFEAGDLDAAVEAFNKALAIVPDHAALNLNLVQVLMKQYDQNPEPALLAACQQRLDHLNKLPEQHRQHRRYLALTRKLKGLTA”, for which the protein production result is listed as “failed”.

“MNQAAQQSAPSRLRDRTLAAFTLMVSQPALAAIAALAALYALLAVVGGILTFSPVPFWDMWDGGLGFYVRQMTDVSQWWAQHNEHRIVLSRILFFLDYRYFDSNGAVLVVINYLLACSTFGLLAWCALQRDASRRRDGRMIAAFILCCALLWTQSNNLTWAFQSQFFLANLLPLLALVLLHASCRTRIRGNAIVFLAALTVAAMAAVSMANGVLAGGVVAAACLLGRQSWRRNLLAWAVAIAVPALYFHHYTAPAGHGSILASLRTEPLEVIKFFFAYIGSPFAHLDASGPLHLGWAILAGVVLLTAGAILAWRTIFKRHDTVDVDLVVTLFLGYLVASAFATAGSRALFGLDAAVASRYTTPGLLVLGCVLILASRNFFRDRALTMPYQIGLALMALAFLPSQLTATRPQPYLDFEWRFAALALELGVKDDKQIGWIFPDAAWAQKIAEPAANMGLGIFAKPGIYDAKLTLGGSYPTSSLQTCSLAGLENEAVDASTNDWIRLKGGLMNSILPRKISTVLLVDANNTIVGRGLLAEPKQDSPGAPFGAPFKAYLMGRAQPAVYKIVIPGFCTTTVAPKSQ”: the protein production result is “failed”.

For the sequence “MNQEKIADLKNWMHQEKIDFTYISDPGHIAYFSGYESEPHERVLALFIAADDQSFLFTPALEVEDAEKSSWTYPVYGYLDSENPWEKIAALLNKRTQGTPRFALEKQALSLARFDQLKTYFPASDFSHDVTPLIEKLQLIKTEPEIQRLLEAGSWADVAFEIGFKAIQAGVAEQEIVAEIEYQLKRQGIRSMSFDTLVLTGKNGASPHGVPGETKIEPHDLVLFDLGVVHNGYCSDATRTVSYLEPSDFQKEIYGIVLEAQLAATEAVKPGVTAGELDDIARGVITKAGYGEYFNHRLGHGIGTTVHEYPSLVHGNDLVIEEGMCFSIEPGIYIPGKVGVRIEDCLHVTKTGSEPFTKTTKELQIIQ”, the protein production entry is recorded as “failed”.

On to “MNQPTSETRTVVVERELPHSPEKIWRALTQPHLIEAWLMKSDFEPVAGRTFSFHADWGSVDCTLLTIEPERVLSYTWAAYGLESVVTWTLTPTPGGTLLRMEQAGFRADQEQAYRGAQQGWVRFFDSLEQVVARADEDEEGRA”, for which the protein production entry is “failed”.

With “MNQRDVILDCEKKLLTAIQNNDVESLEVLLHDDLLFIIPSGETVTKETDIAAYSSGKIALRAVVPSDYIIRIIHDTVVVSVNIEIKGEYMEHTLDNTFRYLRVWKLFDGNWKVIAGSCTAIG”, the protein production entry is “not failed”.

For “MNQTKTTDDNNNNSKPDETESTTTVPEWITETINGGSFHHVDLETGTNGWASPPGNVFSLRSNNYFTTKQKSPGGDYLLSLIAVDWLKSTTKKLDHILCRPDNRVIHALETSQSRSFIFAVNFQIPGKEHYHLVLYFATEKPIPSDSILHKFINIDDDSFRNERFKVVTNVVKGPWVVKATAGKLGAFLAGKVVKCSYYRGANYFEVDVDFSISAIYSALVRLTLGYVTNLVADVGFVVEAQTEEELPERLIGGGRVCYMELSSAFLVDDGKKMGAAEGNHSEDEI”, the protein production entry was “failed”.

For the sequence “MNRLCVLGLLIGLSGSPALAAGQGESGNPPATDKERFIASLMARMSNAEKIGQLRLVSVGADHPKEALMADIRAGKVGAIFNTVTRPDIRAMQDQVRHSRLKIPLFHAYDVAHGHRTIFPISLGLAASWDPEVVARSARISALEASADGLDMSFSPMVDITRDARWGRVSEGFGEDTYLTSLLSGVMVRAYQGSNLAAPDSIMAAVKHFALYGAAEGGRDYNTVDMSLPRMFQDYLPPYKAAVDAGAGAVMVSLNTINGVPATANRWLLTDLLRQQWGFKGLTISDHGAVKELIKHGLAGNERDATRLAIQAGVDMNMNDDLYSTWLPKLLAAGEIDQADIDRACRDVLAAKYDLGLFADPYRRLGK”, the protein production result is given as “failed”.

Consider “MNRLFGNGRCLDVAIDHGVCNEPSFLDGLENMPAVVKALVDARPDAIQMNYGQADLLQDLPGKDKPALVMRIDMGNPYNRIRHRDMWAVLQNEAEPLVGALQMDAACVVVNLFMLPDEPDLFRQCVQNISRVRADCEKYGMPLMIEPLVMQPVTERGGYMVDGDADKIVTLTRLAREMGADIVKADPTTNAEDFHRVVEAARCPVLVRGGGKEDLAAVFAKSTALMRQGAMGMVYGRNIYQHANPSAVVRGLMAIIHQDASGEEAVAIYRQG”, for which the protein production result is listed as “failed”.

With “MNRLLELSNEIFRIKTDDYTFPLFSSLHFKIILCVVITIFIAIIFKEKIKKWKYRRTFEVTTALILLSTQIFLAIWYSRFPNFYLKESLPLYPCRIAIIMAAIGLIWKKNDFAKSIAYFWGTIGAIGALMIPITNSYIFPHITYYTFFIGHYFLLIASLYLILIEEFKVKSKNVKQALIFSFIFAICAFIANYLFDANYAFLNPPNGYEILNIINVESNIITTSIFAYFIFVLGIFIMYLPFNMSDYKKDSLFECSLIKY”, the protein production result is “failed”.

On to “MNRPAMPFANTVPGFLPFLNDEKGLRQESQQRYLYTLRPFEAYLNRGGIALSGLEPAHISRFLEERAKTLHKAGMRDTAGALRIFLRYLHREGIVATDLVRSVPRGRIYRQASIPRALEHHHHHH”, for which the protein production entry is listed as “failed”.

As to “MNRPGVLTSPGSIPLRPRRRDPSGPASARARVEARQRVGKILVVAGWIVSLAGVAIYCVTSFAAGADADLAAILIDGAIPAARAGLAVVGVGTLTWVVGSILHLNASLDAADAERDGPAEG”, the protein production result was “failed”.

Take “MNRQLLLDVLPAPAPALNNYIAGPNGQALAAAHALTAGRAIYLWGPAGCGRTHLLRGLSARPEAIYIDAARAAQSLRELAEADSTAPMPRLVAVDDVHRMDDARQAGLFALYNRWRESAATGRAFALAVSGDRAPMSLPLREDLRTRLGWDLVFRLDPLSDADKLAALTAQAAERGLQLAPEVINWMLTHHERDIRKLAALLDALDRYSLATGRPITIPLLRAMLADPHSQATLEHHHHHH”: the protein production entry was “not failed”.

For the sequence “MNRRGGQTAFAAIARNERAIAAFIPYSSHLTDTTLITHGADLVRTWRVQGIAFESAEPELVSQRHEQLNGLWRAISCEQVALWIHCIRRKTQAGLDARYENPFCRALDASYNARLNARQAMTNEFYLTLVYRPGHAALGKRAHHGQAEVRRQLLAHVRRMDEIGSLIETTLRSHGENHEQAITVLGCETDSAGRRYSRTLTLLEFLLTGHWQPVRVPAGPVDAYLGSSRILAGAEMMELRAPTCRRYAQFIDFKEYGTHTEPGMLNALLYEDYEYVITHSFSAVGKRQALAYLQRQRAQLANVQDAAYSQIDDLAHAEDALVNGDFVIGEYHFSMMILGADPRQLRRDVSSAMTRIQERGFLATPVTLALDAAFYAQLPANWAYRSRKAMLTSRNFAGLCSFHNFYGGKRDGNPWGPALSLLSTPSGQPFYFNFHHSGLDEDCRGQMMLGNTRIIGQSGSGKTVLLNFLLCQLQKFRSADADGLTTIFFDKDRGAEICIRALDGQYLRIRDGEPTGFNPLQLPCTDRNVMFLDSLLAMLARAHDSPLTSAQHATLATAVRTVLRMPASLRRMSTLLQNITQATSEQRELVRRLGRWCRDDGAGGTGMLWWVFDNPNDCLDFSRPGNYGIDGTAFLDNAETRTPISMYLLHRMNEAMDGRRFVYLMDEAWKWIDDPAFAEFAGDQQLTIRKKNGLGVFSTQMPSSLLGARVAASLVQQCATEIYLPNPRADRAEYLDGFKCTETEYQLIRSMAEDSHLFLVKQGRQAVVAQLDLSGMDDELAILSGNARNLRCFEQALALTRERDPNDWIAVFHRLRREASAGLR”, the protein production result is listed as “failed”.
